According to publication PMC9687537:

B1: GFP–WDR34-WT [human] / DYNLL2 [human (endogenous in RPE1)] (parent)
chain 1: MATRAQPGPLSQAGSAGVAALATVGVASGPGPGRPGPLQDETLGVASVPSQWRAVQGIRWETKSCQTASIATASASAQARNHVDAQVQTEAPVPVSVQPPSQYDIPRLAAFLRRVEAMVIRELNKNWQSHAFDGFEVNWTEQQQMVSCLYTLGYPPAQAQGLHVTSISWNSTGSVVACAYGRLDHGDWSTLKSFVCAWNLDRRDLRPQQPSAVVEVPSAVLCLAFHPTQPSHVAGGLYSGEVLVWDLSRLEDPLLWRTGLTDDTHTDPVSQVVWLPEPGHSHRFQVLSVATDGKVLLWQGIGVGQLQLTEGFALVMQQLPRSTKLKKHPRGETEVGATAVAFSSFDPRLFILGTEGGFPLKCSLAAGEAALTRMPSSVPLRAPAQFTFSPHGGPIYSVSCSPFHRNLFLSAGTDGHVHLYSMLQAPPLTSLQLSLKYLFAVRWSPVRPLVFAAASGKGDVQLFDLQKSSQKPTVLIKQTQDESPVYCLEFNSQQTQLLAAGDAQGTVKVWQLSTEFTEQGPREAEDLDCLAAEVAA
chain 2: not shown
B2: GFP–WDR34-WT [human] / LIC3 [human (endogenous in RPE1)] (parent)
chain 1: B1 chain 1
chain 2: MPSETLWEIAKAEVEKRGINGSEGDGAEIAEKFVFFIGSKNGGKTTIILRCLDRDEPPKPTLALEYTYGRRAKGHNTPKDIAHFWELGGGTSLLDLISIPITGDTLRTFSLVLVLDLSKPNDLWPTMENLLQATKSHVDKVIMKLGKTNAKAVSEMRQKIWNNMPKDHPDHELIDPFPVPLVIIGSKYDVFQDFESEKRKVICKTLRFVAHYYGASLMFTSKSEALLLKIRGVINQLAFGIDKSKSICVDQNKPLFITAGLDSFGQIGSPPVPENDIGKLHAHSPMELWKKVYEKLFPPKSINTLKDIKDPARDPQYAENEVDEMRIQKDLELEQYKRSSSKSWKQIELDS
B3: GFP–WDR34-WT [human] / WDR60 [human (endogenous in RPE1)] (parent)
chain 1: B1 chain 1
chain 2: MEPGKRRTKDDTWKADDLRKHLWAIQSGGSKEERKHREKKLRKESEMDLPEHKEPRCRDPDQDARSRDRVAEVHTAKESPRGERDRDRQRERRRDAKDREKEKLKEKHREAEKSHSRGKDREKEKDRRARKEELRQTVAHHNLLGQETRDRQLLERAERKGRSVSKVRSEEKDEDSERGDEDRERRYRERKLQYGDSKDNPLKYWLYKEEGERRHRKPREPDRDNKHREKSSTREKREKYSKEKSNSFSDKGEERHKEKRHKEGFHFDDERHQSNVDRKEKSAKDEPRKRESQNGEHRNRGASSKRDGTSSQHAENLVRNHGKDKDSRRKHGHEEGSSVWWKLDQRPGGEETVEIEKEETDLENARADAYTASCEDDFEDYEDDFEVCDGDDDESSNEPESREKLEELPLAQKKEIQEIQRAINAENERIGELSLKLFQKRGRTEFEKEPRTDTNSSPSRASVCGIFVDFASASHRQKSRTQALKQKMRSTKLLRLIDLDFSFTFSLLDLPPVNEYDMYIRNFGKKNTKQAYVQCNEDNVERDIQTEEIETREVWTQHPGESTVVSGGSEQRDTSDAVVMPKIDTPRLCSFLRAACQVMAVLLEEDRLAAEPSWNLRAQDRALYFSDSSSQLNTSLPFLQNRKVSSLHTSRVQRQMVVSVHDLPEKSFVPLLDSKYVLCVWDIWQPSGPQKVLICESQVTCCCLSPLKAFLLFAGTAHGSVVVWDLREDSRLHYSVTLSDGFWTFRTATFSTDGILTSVNHRSPLQAVEPISTSVHKKQSFVLSPFSTQEEMSGLSFHIASLDESGVLNVWVVVELPKADIAGSISDLGLMPGGRVKLVHSALIQLGDSLSHKGNEFWGTTQTLNVKFLPSDPNHFIIGTDMGLISHGTRQDLRVAPKLFKPQQHGIRPVKVNVIDFSPFGEPIFLAGCSDGSIRLHQLSSAFPLLQWDSSTDSHAVTGLQWSPTRPAVFLVQDDTSNIYIWDLLQSDLGPVAKQQVSPNRLVAMAAVGEPEKAGGSFLALVLARASGSIDIQHLKRRWAAPEVDECNRLRLLLQEALWPEGKLHK

Variants of: B1
Assay: GFP-trap purification, TMT-labelling and mass spectrometry
Conditions: with DYNLL2 [human (endogenous in RPE1)]; RPE1 WDR34 KO cell lines expressing GFP proteins, serum-starved for 24 h; read off a plot

Variant | ratio to parent
chain 1 T354M | 1.5

Variants of: B2
Assay: as above
Conditions: with LIC3 [human (endogenous in RPE1)]; RPE1 WDR34 KO cell lines expressing GFP proteins, serum-starved for 24 h; read off a plot

Variant | ratio to parent
chain 1 A341V | 2.2

Variants of: B3
Assay: as above
Conditions: with WDR60 [human (endogenous in RPE1)]; RPE1 WDR34 KO cell lines expressing GFP proteins, serum-starved for 24 h; read off a plot

Variant | ratio to parent
chain 1 R182W | 1.7
chain 1 K436R | 1.4

Other lines, results leading:

ratio to parent | Variant
1.3 | chain 1 A341V
1.5 | chain 1 R206C
